The record followed here is publication PMC12147176, “Unstructured protein domains stabilize RNA binding and mediate RNA folding by AUF1”.

The target of series [1] is T1, His6-p37AUF1(78-239) (human, UniProt Q14103-4 78-239). The series can be described thus: fluorescence anisotropy; Anisotropy: 10 mM Tris-HCl pH 8.0, 100 mM KCl (50 mM for Fl-ARE2), 0.5 mM EDTA, 0.1 ug/ul acetylated BSA, 1 ug/ul heparin, 2 mM DTT, 25 C, RNA 0.2-0.4 nM; EMSA: same with 100 mM KCl, 10% glycerol, 1 nM RNA, on ice, UV crosslinked. The note with it: protein: recombinant; for Kd: label: 3' fluorescein.

Series [2] concerns the target T2, His6-p37AUF1 wt (human, UniProt Q14103-4 1-287). The series is described as above. The note with it: protein: recombinant, chain copies: 2; for Kd: label: 3' fluorescein.
Series [3] addresses T1, His6-p37AUF1(78-239). Briefly: EMSA (UV-crosslinked); Anisotropy: 10 mM Tris-HCl pH 8.0, 100 mM KCl (50 mM for Fl-ARE2), 0.5 mM EDTA, 0.1 ug/ul acetylated BSA, 1 ug/ul heparin, 2 mM DTT, 25 C, RNA 0.2-0.4 nM; EMSA: same with 100 mM KCl, 10% glycerol, 1 nM RNA, on ice, UV crosslinked. Conditions: protein: recombinant; label: biotin.
Series [4] concerns the target T2, His6-p37AUF1 wt. The series is described as above. The note with it: protein: recombinant; chain copies: 2; label: biotin.
Series [5] addresses T3, His6-p37AUF1 W87F (human, UniProt Q14103-4 1-287, W87F). The series can be described thus: Trp fluorescence and iodide quenching; 2 uM each; KSV 3.88 M-1; Anisotropy: 10 mM Tris-HCl pH 8.0, 100 mM KCl (50 mM for Fl-ARE2), 0.5 mM EDTA, 0.1 ug/ul acetylated BSA, 1 ug/ul heparin, 2 mM DTT, 25 C, RNA 0.2-0.4 nM; EMSA: same with 100 mM KCl, 10% glycerol, 1 nM RNA, on ice, UV crosslinked. The note with it: protein: recombinant; tags: N-term His6; chain copies: 2.

For series [6], the target named is T4, His6-p37AUF1(1-239) (human, UniProt Q14103-4 1-239). Briefly: fluorescence anisotropy; Anisotropy: 10 mM Tris-HCl pH 8.0, 100 mM KCl (50 mM for Fl-ARE2), 0.5 mM EDTA, 0.1 ug/ul acetylated BSA, 1 ug/ul heparin, 2 mM DTT, 25 C, RNA 0.2-0.4 nM; EMSA: same with 100 mM KCl, 10% glycerol, 1 nM RNA, on ice, UV crosslinked. Conditions: protein: recombinant; chain copies: 2; label: 3' fluorescein.

Another series deals with His6-p37AUF1(Δ69-77) (human, UniProt Q14103-4 1-287, del69-77). Described as above. Conditions: protein: recombinant; chain copies: 2; label: 3' fluorescein.
A further series concerns the target His6-p37AUF1 W250F (human, UniProt Q14103-4 1-287, W250F). The description is as above. The note with it: protein: recombinant; tags: N-term His6; chain copies: 2; label: 3' fluorescein.
The next series has as its target His6-p37AUF1(30-287) (human, UniProt Q14103-4 30-287). The series is described as above. Conditions: protein: recombinant; chain copies: 2; label: 3' fluorescein.
The next series addresses His6-p37AUF1(69-239) (human, UniProt Q14103-4 69-239). Described as above. The note with it: protein: recombinant; label: 3' fluorescein.
Another series concerns the target p37AUF1 (EK-cleaved) (human, UniProt Q14103-4 1-287). The description is as above. The note with it: protein: recombinant; tags: His6 removed by enterokinase; chain copies: 2; label: 3' fluorescein.
Series [7] deals with T3, His6-p37AUF1 W87F. The series can be described thus: Trp fluorescence and iodide quenching; 2 uM each; KSV 0.60 vs 6.59 M-1 without RNA; saturates near 1:1; Anisotropy: 10 mM Tris-HCl pH 8.0, 100 mM KCl (50 mM for Fl-ARE2), 0.5 mM EDTA, 0.1 ug/ul acetylated BSA, 1 ug/ul heparin, 2 mM DTT, 25 C, RNA 0.2-0.4 nM; EMSA: same with 100 mM KCl, 10% glycerol, 1 nM RNA, on ice, UV crosslinked. Conditions: protein: recombinant; tags: N-term His6; chain copies: 2.

Series [8] deals with T4, His6-p37AUF1(1-239). The series can be described thus: fluorescence anisotropy; first site (Kd1), 50 mM KCl; Anisotropy: 10 mM Tris-HCl pH 8.0, 100 mM KCl (50 mM for Fl-ARE2), 0.5 mM EDTA, 0.1 ug/ul acetylated BSA, 1 ug/ul heparin, 2 mM DTT, 25 C, RNA 0.2-0.4 nM; EMSA: same with 100 mM KCl, 10% glycerol, 1 nM RNA, on ice, UV crosslinked. The note with it: protein: recombinant; chain copies: 2; label: 5' fluorescein.

Series [9] deals with T1, His6-p37AUF1(78-239). Described as above. Conditions: protein: recombinant; label: 5' fluorescein.
The target in series [10] is T2, His6-p37AUF1 wt. The series is described as above. Conditions: protein: recombinant; chain copies: 2; label: 5' fluorescein.
In a further series the target is His6-p37AUF1(69-287) (human, UniProt Q14103-4 69-287). Briefly: fluorescence anisotropy; Anisotropy: 10 mM Tris-HCl pH 8.0, 100 mM KCl (50 mM for Fl-ARE2), 0.5 mM EDTA, 0.1 ug/ul acetylated BSA, 1 ug/ul heparin, 2 mM DTT, 25 C, RNA 0.2-0.4 nM; EMSA: same with 100 mM KCl, 10% glycerol, 1 nM RNA, on ice, UV crosslinked. Conditions: protein: recombinant; label: 3' fluorescein.

The target of a further series is His6-p37AUF1(78-287) (human, UniProt Q14103-4 78-287). Described as above. The note with it: protein: recombinant; chain copies: 2; label: 3' fluorescein.
Sequence of His6-p37AUF1(78-287) (Q14103 other isoform, or with tags, fused parts or gaps): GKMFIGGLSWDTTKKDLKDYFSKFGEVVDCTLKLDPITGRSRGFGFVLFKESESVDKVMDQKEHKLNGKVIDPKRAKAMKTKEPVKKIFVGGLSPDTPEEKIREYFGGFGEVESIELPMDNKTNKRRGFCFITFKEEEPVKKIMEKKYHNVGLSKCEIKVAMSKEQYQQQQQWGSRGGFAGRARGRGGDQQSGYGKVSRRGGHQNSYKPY

T2 sequence (Q14103 other isoform, or with tags, fused parts or gaps): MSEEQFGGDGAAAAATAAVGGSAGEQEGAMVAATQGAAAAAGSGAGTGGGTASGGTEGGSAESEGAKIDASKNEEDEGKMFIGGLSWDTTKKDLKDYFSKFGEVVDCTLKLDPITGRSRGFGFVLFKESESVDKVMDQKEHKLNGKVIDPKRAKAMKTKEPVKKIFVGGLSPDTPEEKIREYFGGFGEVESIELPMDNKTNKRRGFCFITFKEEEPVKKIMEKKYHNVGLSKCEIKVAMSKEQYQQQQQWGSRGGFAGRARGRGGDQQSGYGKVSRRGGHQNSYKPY
T1 sequence (Q14103 other isoform, or with tags, fused parts or gaps): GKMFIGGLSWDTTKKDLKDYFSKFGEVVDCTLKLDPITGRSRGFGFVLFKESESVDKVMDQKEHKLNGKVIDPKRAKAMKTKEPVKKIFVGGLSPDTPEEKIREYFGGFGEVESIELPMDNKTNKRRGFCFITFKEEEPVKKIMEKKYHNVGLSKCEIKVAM
T4 sequence (Q14103 other isoform, or with tags, fused parts or gaps): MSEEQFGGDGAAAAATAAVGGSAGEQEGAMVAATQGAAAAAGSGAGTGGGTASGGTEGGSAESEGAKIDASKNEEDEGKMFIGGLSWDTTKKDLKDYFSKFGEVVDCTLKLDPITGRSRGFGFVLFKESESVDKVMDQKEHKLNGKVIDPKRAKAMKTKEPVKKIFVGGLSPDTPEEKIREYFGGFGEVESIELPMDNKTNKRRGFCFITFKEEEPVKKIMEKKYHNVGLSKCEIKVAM
T3 sequence (Q14103 other isoform, or with tags, fused parts or gaps W87F | W87F W87F): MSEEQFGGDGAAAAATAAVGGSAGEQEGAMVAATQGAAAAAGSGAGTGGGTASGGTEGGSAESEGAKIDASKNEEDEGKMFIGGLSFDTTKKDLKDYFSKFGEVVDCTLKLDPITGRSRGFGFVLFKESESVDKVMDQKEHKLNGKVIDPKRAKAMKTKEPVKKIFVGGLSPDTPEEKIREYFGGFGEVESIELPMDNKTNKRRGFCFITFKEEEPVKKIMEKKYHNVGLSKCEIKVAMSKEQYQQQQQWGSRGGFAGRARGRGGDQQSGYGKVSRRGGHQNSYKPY
Sequence of His6-p37AUF1(69-239) (Q14103 other isoform, or with tags, fused parts or gaps): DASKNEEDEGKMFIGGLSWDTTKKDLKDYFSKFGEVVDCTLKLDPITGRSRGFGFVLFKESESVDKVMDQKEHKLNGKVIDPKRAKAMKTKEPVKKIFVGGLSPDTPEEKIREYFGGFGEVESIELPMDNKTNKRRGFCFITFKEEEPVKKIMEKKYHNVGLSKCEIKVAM
Sequence of His6-p37AUF1(30-287) (Q14103 other isoform, or with tags, fused parts or gaps): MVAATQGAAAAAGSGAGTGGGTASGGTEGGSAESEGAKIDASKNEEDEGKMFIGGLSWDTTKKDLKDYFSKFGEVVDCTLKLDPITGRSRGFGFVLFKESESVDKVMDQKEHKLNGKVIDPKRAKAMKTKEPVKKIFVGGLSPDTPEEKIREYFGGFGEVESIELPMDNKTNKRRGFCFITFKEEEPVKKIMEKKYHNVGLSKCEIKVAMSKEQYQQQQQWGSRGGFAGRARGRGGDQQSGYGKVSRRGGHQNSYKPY
Sequence of His6-p37AUF1 W250F (Q14103 other isoform, or with tags, fused parts or gaps W250F | W250F W250F): as the sequence (Q14103 other isoform, or with tags, fused parts or gaps W87F | W87F W87F) above, with F87W, W250F counted along it
Sequence of p37AUF1 (EK-cleaved) (Q14103 other isoform, or with tags, fused parts or gaps): as the sequence (Q14103 other isoform, or with tags, fused parts or gaps W87F | W87F W87F) above, with F87W counted along it
Sequence of His6-p37AUF1(69-287) (Q14103 other isoform, or with tags, fused parts or gaps): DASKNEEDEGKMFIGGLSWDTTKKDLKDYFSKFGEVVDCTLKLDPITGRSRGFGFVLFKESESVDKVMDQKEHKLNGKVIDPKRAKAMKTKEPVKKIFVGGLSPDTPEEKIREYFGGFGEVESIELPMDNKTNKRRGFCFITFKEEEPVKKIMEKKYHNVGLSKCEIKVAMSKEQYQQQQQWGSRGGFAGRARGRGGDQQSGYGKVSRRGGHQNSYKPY
Sequence of His6-p37AUF1(Δ69-77) (Q14103 other isoform, or with tags, fused parts or gaps del69-77 | mutant): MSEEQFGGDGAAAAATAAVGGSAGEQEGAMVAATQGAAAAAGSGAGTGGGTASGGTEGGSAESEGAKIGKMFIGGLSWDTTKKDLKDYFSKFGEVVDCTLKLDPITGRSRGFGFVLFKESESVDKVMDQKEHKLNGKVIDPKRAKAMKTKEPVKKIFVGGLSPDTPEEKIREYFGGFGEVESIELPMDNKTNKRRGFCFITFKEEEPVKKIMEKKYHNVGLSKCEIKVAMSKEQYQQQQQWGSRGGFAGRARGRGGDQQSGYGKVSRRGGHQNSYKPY

UGGCCAAUGCCCUGGCUCACAAAUACCACUG (ssRNA) [Fl-Rβ]: the binding result in the series with His6-p37AUF1(78-239) [1] (label: 5' fluorescein) and in the series with His6-p37AUF1 wt [2] (label: 5' fluorescein) was “no binding” each time.
Turning to UGGCCAAUGCCCUGGCUCACAAAUACCACUG (ssRNA) [B-Rβ], the binding result with His6-p37AUF1(78-239) [3] and in the series with His6-p37AUF1 wt [4] was “no binding” in each case.
With UUAUUUAUUUAUUUAG (ssRNA) [ARE15-G (unlabeled)], the binding result in the series with His6-p37AUF1 W87F [5] was “binds”.
Turning to CCCCUGGCUCACAAAUACCUUAUUUAUUUAUUUAG (ssRNA) [ARE1-Fl], the Kd in the series with His6-p37AUF1(1-239) [6] amounted to 101 ± 8 nM; with His6-p37AUF1(78-239) [1], 505 ± 34 nM; with His6-p37AUF1 wt [2] it was 19 ± 3 nM; with His6-p37AUF1(Δ69-77), 89 ± 11 nM; with His6-p37AUF1 W250F, 22 ± 2 nM; with His6-p37AUF1(30-287), 27 ± 1.4 nM. For the same molecule, the Kd with His6-p37AUF1(69-239) turned out to be 527 ± 54 nM; with p37AUF1 (EK-cleaved), 15 ± 2 nM.
As to CCCCUGGCUCACAAAUACCUUAUUUAUUUAUUUAG (ssRNA) [ARE1 (unlabeled)], the binding result with His6-p37AUF1 W87F [7] is listed as “binds”.
Consider GUGAUUAUUUAUUAUUUAUUUAUUAUUUAUUUAUUUAG (ssRNA) [Fl-ARE2], for which the Kd with His6-p37AUF1(1-239) [8] was 156 ± 7 nM; with His6-p37AUF1(78-239) [9], 853 ± 48 nM; in the series with His6-p37AUF1 wt [10], 16 ± 3 nM.
Regarding UUAUUUAUUUAUUUAG (ssRNA) [ARE15-G-Fl], the Kd with His6-p37AUF1(1-239) [6] turned out to be 176 ± 9 nM; with His6-p37AUF1(78-239) [1] it was 796 ± 103 nM; in the series with His6-p37AUF1 wt [2], 110 ± 5 nM; with His6-p37AUF1(69-287) it was 467 ± 33 nM; with His6-p37AUF1(69-239) it was 933 ± 90 nM; with His6-p37AUF1(78-287), 1090 ± 69 nM.
